From patent US20190135921A1, “METHODS OF PREVENTING OR TREATING SLAMF7 POSITIVE AND SLAMF7 NEGATIVE CANCERS” (ADAERATA, LIMITED PARTNERSHIP, priority 2016, published 2019)

Tests used:
thymocytes = assay: induction of apoptotic thymocytes (annexin V); type: cell-based, mouse; settings: 1 μM, 10 hours, 37° C.; data not shown
[1] = tested on: Colo205, SW480 and SW620 cells; assay: in vitro phagocytosis assay, mouse BMDMs with human non-hematopoietic tumor cells; type: cell-based; settings: BMDMs pretreated with LPS; FIG. 2R
Method: In vitro phagocytosis assays. For the microscopy-based assay, 5×10^4 macrophages were seeded overnight in a 24-well tissue culture plate. On the next day, target cells were washed and labeled with 2.5 μM of carboxyfluorescein succinimidyl ester (CFSE), using the CFSE Cell Proliferation Kit (C34554; Life Technologies, Burlington, ON, Canada). After incubating macrophages in serum-free medium for 2 hours, 2×10^5 CFSE-labeled target cells were added to the macrophages, in the presence of anti-CD47 Ab or control IgG (10 μg/mL). After incubation for 2 hours at 37° C., macrophages were extensively washed and imaged with an inverted microscope (Carl Zeiss Axiovert™ S100 TV). The phagocytosis efficiency was calculated as the number of macrophages containing CFSE^+ target cells per 100 macrophages. […] Cells were then stained on ice for 30 minutes with APC conjugated-anti-human Tac (CD25) and PE-conjugated MAb F4/80, and analyzed by flow cytometry. After gating on F4/80^+Tac^− cells (which include macrophages but exclude non-phagocytosed Tac-positive L1210 cells), phagocytosis efficiency was determined as the percentage of F4/80^+Tac^− cells containing CFSE-derived green fluorescence (detected in FL1 channel). […] They were then stained with APC-conjugated anti-F4/80 and analyzed by flow cytometry. […] Phagocytosis was monitored by microscopy. […]

[2] = biological target: T1, mouse CD11b (integrin alphaM, alpha subunit of Mac-1) (mouse, UniProt P05555 17-1153); assay: anti-CD11b immunoprecipitation from WT and CD11b KO BMDM lysates, mass spectrometry
T1 construct: whole, on cells; Together with CD18 it constitutes Mac-1; Endogenous protein recovered from cell lysates; also called Mac-1 (CD11b); CR3 alpha subunit
T1 sequence (P05555 17-1153): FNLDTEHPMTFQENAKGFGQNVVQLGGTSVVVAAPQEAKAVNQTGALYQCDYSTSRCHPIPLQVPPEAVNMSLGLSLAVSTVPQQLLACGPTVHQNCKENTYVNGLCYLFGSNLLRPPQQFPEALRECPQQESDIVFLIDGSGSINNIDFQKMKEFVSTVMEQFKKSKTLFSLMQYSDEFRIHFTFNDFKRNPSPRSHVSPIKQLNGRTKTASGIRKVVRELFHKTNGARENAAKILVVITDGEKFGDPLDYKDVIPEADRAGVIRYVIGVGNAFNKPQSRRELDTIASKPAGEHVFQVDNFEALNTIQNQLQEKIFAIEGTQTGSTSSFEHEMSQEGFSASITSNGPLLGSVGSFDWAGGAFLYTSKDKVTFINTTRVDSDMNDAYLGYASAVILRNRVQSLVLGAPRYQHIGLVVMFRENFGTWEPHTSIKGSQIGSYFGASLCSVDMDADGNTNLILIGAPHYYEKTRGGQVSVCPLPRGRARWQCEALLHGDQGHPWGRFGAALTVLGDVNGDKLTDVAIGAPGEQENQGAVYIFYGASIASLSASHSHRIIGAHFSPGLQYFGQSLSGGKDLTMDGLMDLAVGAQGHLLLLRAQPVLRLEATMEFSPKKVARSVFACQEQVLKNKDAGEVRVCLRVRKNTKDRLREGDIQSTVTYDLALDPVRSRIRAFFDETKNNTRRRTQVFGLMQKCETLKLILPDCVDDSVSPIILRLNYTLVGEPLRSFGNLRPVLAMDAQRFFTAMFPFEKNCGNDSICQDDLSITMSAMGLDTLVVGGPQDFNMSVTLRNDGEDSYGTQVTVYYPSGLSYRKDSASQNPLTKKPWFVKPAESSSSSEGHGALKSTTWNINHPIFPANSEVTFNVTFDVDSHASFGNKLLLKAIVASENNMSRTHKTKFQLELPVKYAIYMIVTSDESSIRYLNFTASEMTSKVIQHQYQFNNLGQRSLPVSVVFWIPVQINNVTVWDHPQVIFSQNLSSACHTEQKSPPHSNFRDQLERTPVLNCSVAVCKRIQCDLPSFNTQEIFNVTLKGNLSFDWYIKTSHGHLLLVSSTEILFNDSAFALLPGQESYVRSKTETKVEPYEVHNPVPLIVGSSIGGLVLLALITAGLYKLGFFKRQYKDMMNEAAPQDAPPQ
Method: (§1) Authenticated cells. (FIG. 9D) Lysates from the mouse macrophage cell line RAW264.7 expressing GFP alone or in combination with a FLAG-tagged version of mouse SLAMF7 (FLAG-SLAMF7) were immunoprecipitated with anti-FLAG. They were then probed by immunoblotting with anti-CD11b (Mac-1) or anti-SLAMF7. Total cell lysates were analyzed in parallel. (FIG. 9E) Co-localization of SLAMF7 and CD11b in RAW264.7 cells expressing GFP alone or with FLAG-SLAMF7 assessed by immunofluorescence. Semi-confluent RAW264.7 cells expressing GFP alone (bottom) or in combination with FLAG-SLAMF7 (top) were fixed and stained with antibodies against FLAG, CD11b (Mac-1) or CD18, as detailed in Example 1. Staining was detected by confocal microscopy. Scale bar, 5 μm. […] (FIG. 9F) As in FIG. 9E, except that only RAW264.7 cells expressing FLAG-SLAMF7 were analyzed and that antibodies coupled to different fluorophores were used. […] (FIG. 9G-A and FIG. 9G-B) RAW264.7 derivatives expressing GFP alone or in combination with FLAG-SLAMF7 were analyzed by flow cytometry, using antibodies directed against FLAG and SLAMF7 (dotted lines). […]
(§2) Immunoprecipitations, mass spectrometry, immunoblots. […] In brief, immunoprecipitated proteins were digested with trypsin (Promega, Madison, Wis.) and analyzed by LC-MS/MS on a LTQ Orbitrap™ Velos (ThermoFisher Scientific, Bremen, Germany) equipped with a Proxeon nanoelectrospray™ ion source. […]

[3] = biological target: T1, mouse CD11b (integrin alphaM, alpha …); assay: anti-FLAG IP from RAW264.7 cells expressing FLAG-SLAMF7, anti-CD11b immunoblot; confocal co-localization
Method: as §1, §2

In the case of `C[C@@H]1C[C@H]2[C@@H]3CCC4=CC(=O)C=C[C@]4(C)[C@@]3(F)[C@@H](O)C[C@]2(C)[C@@]1(O)C(=O)CO` [dexamethasone], the “cells becoming apoptotic (annexin V-positive)” value (thymocytes) is reported as “about 70%”.

For lipopolysaccharide [LPS], the “phagocytosis of non-hematopoietic targets” value [1] was “phagocytosis of non-hematopoietic targets was seen”.

B1: mouse CD16 (Fc receptor) (receptor, UniProt P08508 31-261, looked up)
chain: ALPKAVVKLDPPWIQVLKEDMVTLMCEGTHNPGNSSTQWFHNGRSIRSQVQASYTFKATVNDSGEYRCQMEQTRLSDPVDLGVISDWLLLQTPQRVFLEGETITLRCHSWRNKLLNRISFFHNEKSVRYHHYKSNFSIPKANHSHSGDYYCKGSLGSTQHQSKPVTITVQDPATTSSISLVWYHTAFSLVMCLLFAVDTGLYFYVRRNLQTPREYWRKSLSIRKHQAPQDK
notes: whole, on cells
B1: no binding [2].

B2: FLAG-tagged version of mouse SLAMF7 (receptor, UniProt Q8BHK6 23-333, looked up)
chain: SGTLKKVAGALDGSVTFTLNITEIKVDYVVWTFNTFFLAMVKKDGVTSQSSNKERIVFPDGLYSMKLSQLKKNDSGAYRAEIYSTSSQASLIQEYVLHVYKHLSRPKVTIDRQSNKNGTCVINLTCSTDQDGENVTYSWKAVGQGDNQFHDGATLSIAWRSGEKDQALTCMARNPVSNSFSTPVFPQKLCEDAATDLTSLRGILYILCFSAVLILFAVLLTIFHTTWIKKGKGCEEDKKRVDRHQEMPDLCPHLEENADYDTIPYTEKRRPEEDAPNTFYSTVQIPKVVKSPSSLPAKPLVPRSLSFENVI
notes: whole, on cells; It was immunoprecipitated with anti-FLAG from RAW264.7 lysates; also called FLAG-SLAMF7; not shown: FLAG tag
B2: binds [3].

B3: mouse CD64 (Fc receptor) (receptor, UniProt P26151 25-404, looked up)
chain: EVVNATKAVITLQPPWVSIFQKENVTLWCEGPHLPGDSSTQWFINGTAVQISTPSYSIPEASFQDSGEYRCQIGSSMPSDPVQLQIHNDWLLLQASRRVLTEGEPLALRCHGWKNKLVYNVVFYRNGKSFQFSSDSEVAILKTNLSHSGIYHCSGTGRHRYTSAGVSITVKELFTTPVLRASVSSPFPEGSLVTLNCETNLLLQRPGLQLHFSFYVGSKILEYRNTSSEYHIARAEREDAGFYWCEVATEDSSVLKRSPELELQVLGPQSSAPVWFHILFYLSVGIMFSLNTVLYVKIHRLQREKKYNLEVPLVSEQGKKANSFQQVRSDGVYEEVTATASQTTPKEAPDGPRSSVGDCGPEQPEPLPPSDSTGAQTSQS
notes: whole, on cells
B3: no binding [2].
